Experimental data published in the supplement of paper PMC9233669.
This sample holds only a part of the variants without activity.

Test system: biotinyl-Phe-oxazolone
Assay: self-aminoacylation, catalytic enhancement (BFO) (fold over background); higher = more active; k-Seq, kA / k0A0; sequences stand for … in GGGAAUGGAUCCACAUCUACGAAUUC…UUCACUGCAGACUUGACGAAGCUG
Outline: (§1)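 Catalytic enhancement equals the median kA over the uncatalyzed rate, the latter read from the low-activity peak of a bimodal Gaussian fit. Values of kA came from fitting each sequence's fraction reacted to a pseudo-first-order model, with 1000 bootstraps. Reacted RNA was captured with streptavidin and quantified by triplicate qPCR and Illumina sequencing after 90 minutes at room temperature with 2–1250 μM biotinyl-aminoacyl-oxazolone and 0.43 μM mutagenized RNA pools bearing a 21-nt variable region.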

| Sequence | self-aminoacylation |
| --- | --- |
| AAACACUUCAAGCAAUCGGUC [Fam1B.1 aminoacylation ribozyme variant] | 18 |
| AAGCUUGCUAAUAGUCUCAAG [Fam3.1 aminoacylation ribozyme variant] | 2.19 |
| AAGGUUGCUGAUAGUCGCAAG [Fam3.1 aminoacylation ribozyme variant] | 2.05 |
| AAGUAGGCUAAUAGUCGCAAG [Fam3.1 aminoacylation ribozyme variant] | 3.24 |
| AAGUAUGCUAAAAGUCGCAAG [Fam3.1 aminoacylation ribozyme variant] | 8.97 |
| AAGUCUGCUAAGAGUCGCAAG [Fam3.1 aminoacylation ribozyme variant] | 4.79 |
| AAGUCUGCUAUUAGUCGCAAG [Fam3.1 aminoacylation ribozyme variant] | 4.82 |
| AAGUUAGCUAAGAGUCGCAAG [Fam3.1 aminoacylation ribozyme variant] | 2.38 |
| AAGUUAGCUAAUAGUCGAAAG [Fam3.1 aminoacylation ribozyme variant] | 3.83 |
| AAGUUAGCUGAUAGUCGCAAG [Fam3.1 aminoacylation ribozyme variant] | 2.26 |
| AAGUUCGCUGAUAGUCGCAAG [Fam3.1 aminoacylation ribozyme variant] | 5.75 |
| AAGUUGUCUAAUAGUCGCAAG [Fam3.1 aminoacylation ribozyme variant] | 2.35 |
| AAGUUUACCAAUAGUCGCAAG [Fam3.1 aminoacylation ribozyme variant] | 2.58 |
| AAGUUUACUAAUAGCCGCAAG [Fam3.1 aminoacylation ribozyme variant] | 2.1 |
| AAGUUUACUAAUAGGCGCAAG [Fam3.1 aminoacylation ribozyme variant] | 2.02 |
| AAGUUUGCGAAUAGUGGCAAG [Fam3.1 aminoacylation ribozyme variant] | 2.12 |
| AAGUUUGCUAAUAGUAGCAAA [Fam3.1 aminoacylation ribozyme variant] | 2.93 |
| AAGUUUGCUAAUCGUCGCAAG [Fam3.1 aminoacylation ribozyme variant] | 3.12 |
| AAGUUUGCUAAUGGUCGCACG [Fam3.1 aminoacylation ribozyme variant] | 2.96 |
| AAGUUUGCUCAUCGUCGCAAG [Fam3.1 aminoacylation ribozyme variant] | 3.33 |
| AAGUUUGCUUAUAGUCGCAGG [Fam3.1 aminoacylation ribozyme variant] | 2.26 |
| AAGUUUGUUAAUAGUCGCAAG [Fam3.1 aminoacylation ribozyme variant] | 2.01 |
| AAGUUUUCUAAUAGUCGCAAC [Fam3.1 aminoacylation ribozyme variant] | 2.43 |

| Sequence | self-aminoacylation |
| --- | --- |
| AAGUUUUCUAAUUGUCGCAAG [Fam3.1 aminoacylation ribozyme variant] | 2.33 |
| AAGUUUUCUUAUAGUCGCAAG [Fam3.1 aminoacylation ribozyme variant] | 3.91 |
| AAUUUUGCUAAGAGUCGCAAG [Fam3.1 aminoacylation ribozyme variant] | 2.23 |
| AAUUUUGCUAAUAGUCGCCAG [Fam3.1 aminoacylation ribozyme variant] | 2.69 |
| ACGUUUGCUAAUGGUCGCAAG [Fam3.1 aminoacylation ribozyme variant] | 3.94 |
| AGGUUUGCUAAUAGUCGCAUG [Fam3.1 aminoacylation ribozyme variant] | 3.56 |
| AUACGUCAAACAAUCGGUCUG [Fam1A.1 aminoacylation ribozyme variant] | 5.56 |
| AUCCACCUAGGUCAUCGUGUG [Fam2.2 aminoacylation ribozyme variant] | 3.96 |
| AUUACCCGGGUCGUCGAGUGA [Fam2.1 aminoacylation ribozyme variant] | 3.86 |
| AUUACCCUGGGCAUCGUGUGA [Fam2.1 aminoacylation ribozyme variant] | 7.88 |
| AUUACCCUGGUCAACGUGUGA [Fam2.1 aminoacylation ribozyme variant] | 4.08 |
| AUUACCCUGGUCGUCGAGGGA [Fam2.1 aminoacylation ribozyme variant] | 6.85 |
| AUUACCCUGUUCAUCAAGUGA [Fam2.1 aminoacylation ribozyme variant] | 2.65 |
| AUUAUCCUGGUCAUCGAGUUA [Fam2.1 aminoacylation ribozyme variant] | 2.02 |
| AUUCACCAAGGUCAUCGUGUG [Fam2.2 aminoacylation ribozyme variant] | 8.03 |
| AUUCACCGAGGUCAUCGUGUG [Fam2.2 aminoacylation ribozyme variant] | 6.45 |
| AUUCACCUAGGACAUCGUGUG [Fam2.2 aminoacylation ribozyme variant] | 3.71 |
| AUUCACCUAGGUCACAGGGUG [Fam2.2 aminoacylation ribozyme variant] | 5.68 |
| AUUCACCUAGGUCACCGGAUG [Fam2.2 aminoacylation ribozyme variant] | 2.86 |
| AUUCACCUAGGUCAUUGGUUG [Fam2.2 aminoacylation ribozyme variant] | 2.3 |
| AUUCACCUAGGUCGUCGGUUG [Fam2.2 aminoacylation ribozyme variant] | 4.19 |
| AUUCACCUAGGUCUUCGGGAG [Fam2.2 aminoacylation ribozyme variant] | 4.51 |
| AUUCAGCUAGGUCAUCGUGUG [Fam2.2 aminoacylation ribozyme variant] | 3.57 |

| Sequence | self-aminoacylation |
| --- | --- |
| AUUCAUCUAGGUCAUCGGCUG [Fam2.2 aminoacylation ribozyme variant] | 4.5 |
| CAACUGCAAACAAUCGGUCUG [Fam1A.1 aminoacylation ribozyme variant] | 4.06 |
| CAGUUUGCUAAUAGUCGAAAG [Fam3.1 aminoacylation ribozyme variant] | 2.53 |
| CCACACUUCAAGAAAUCAGUC [Fam1B.1 aminoacylation ribozyme variant] | 4.56 |
| CCACACUUCAAGCGAUGGGUC [Fam1B.1 aminoacylation ribozyme variant] | 3.56 |
| CCACACUUCAAGCUAUCGCUC [Fam1B.1 aminoacylation ribozyme variant] | 2.03 |
| CCACACUUCACGCAUUCGGUC [Fam1B.1 aminoacylation ribozyme variant] | 2.45 |
| CCACUUCAAACAACCGGUCUG [Fam1A.1 aminoacylation ribozyme variant] | 2.13 |
| CGACUUCAGACAAUCGGUCUG [Fam1A.1 aminoacylation ribozyme variant] | 3.95 |
| CUAAUUCAAACAAUCGGUCGG [Fam1A.1 aminoacylation ribozyme variant] | 2.14 |
| CUACGUCAAAGAAUCGGUCUG [Fam1A.1 aminoacylation ribozyme variant] | 3.41 |
| CUACGUCAACCAAUCGGUCUG [Fam1A.1 aminoacylation ribozyme variant] | 3.4 |
| CUACUUCAAACAAUCACUCUG [Fam1A.1 aminoacylation ribozyme variant] | 2.98 |
| CUACUUGAAACAAGCGGUCUG [Fam1A.1 aminoacylation ribozyme variant] | 4.76 |
| CUUACCCUGGUCGUCGAGUGA [Fam2.1 aminoacylation ribozyme variant] | 5.47 |
| GAGGUUGCUAAUAGUCGCAAG [Fam3.1 aminoacylation ribozyme variant] | 3.14 |
| GAGUUUGCUAAGAGUCGCAAG [Fam3.1 aminoacylation ribozyme variant] | 3.01 |
| UAGUUUGCUAAUAGUCGCAUG [Fam3.1 aminoacylation ribozyme variant] | 3.23 |
| UAGUUUGCUAAUAGUCUCAAG [Fam3.1 aminoacylation ribozyme variant] | 3.9 |
| UUACUGCAAACAAUCGGUCUG [Fam1A.1 aminoacylation ribozyme variant] | 4.6 |
| UUACUUCGAACAAUCGGUCUG [Fam1A.1 aminoacylation ribozyme variant] | 2.19 |

Test system: biotinyl-Trp-oxazolone
Assay: self-aminoacylation, catalytic enhancement (BWO) (fold over background); higher = more active; k-Seq, kA / k0A0; sequences stand for … in GGGAAUGGAUCCACAUCUACGAAUUC…UUCACUGCAGACUUGACGAAGCUG
Outline: as §1

| Sequence | self-aminoacylation |
| --- | --- |
| AAACACUUCAAGCAAUCGGUC [Fam1B.1 aminoacylation ribozyme variant] | 11.9 |
| AAAUUUGCUAAUAUUCGCAAG [Fam3.1 aminoacylation ribozyme variant] | 2.01 |
| AAGAUUGCUAAUAGGCGCAAG [Fam3.1 aminoacylation ribozyme variant] | 2.61 |
| AAGUAUGCUAAAAGUCGCAAG [Fam3.1 aminoacylation ribozyme variant] | 3.97 |
| AAGUUAGCUAAUCGUCGCAAG [Fam3.1 aminoacylation ribozyme variant] | 2.21 |
| AAGUUGGCUAAUAGUCACAAG [Fam3.1 aminoacylation ribozyme variant] | 2.29 |
| AAGUUUGCUAAGAGUCGCCAG [Fam3.1 aminoacylation ribozyme variant] | 2.06 |
| AAGUUUGCUAAUUGUCGCAAC [Fam3.1 aminoacylation ribozyme variant] | 2.13 |
| AAUUUUGCUAAUAGUCGCUAG [Fam3.1 aminoacylation ribozyme variant] | 2.24 |
| AUUCACCUAGGUCAUUAGGUG [Fam2.2 aminoacylation ribozyme variant] | 2.24 |
| CCACACUUCAAACAAUCGGGC [Fam1B.1 aminoacylation ribozyme variant] | 2.65 |
| CUACUUCAAACACCCGGUCUG [Fam1A.1 aminoacylation ribozyme variant] | 2.08 |
